The target of one test is T1, 4H741-bA.
T1 chain: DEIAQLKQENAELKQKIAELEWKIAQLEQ
As to the kind of experiment: two-hybrid library CCNG1.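 Also: natural log of median RNA to DNA barcode read ratio; higher means stronger binding.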

The target in a further test is T2, 4H797-bH.
T2 chain: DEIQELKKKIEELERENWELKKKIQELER
As to the kind of experiment: two-hybrid library CCNG1.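 Also: natural log of median RNA to DNA barcode read ratio; higher means stronger binding.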

A further test concerns the target T3, 4H968-bH.
T3 chain: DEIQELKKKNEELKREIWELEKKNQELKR
As to the kind of experiment: two-hybrid library CCNG1.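 Also: natural log of median RNA to DNA barcode read ratio; higher means stronger binding.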

Another test deals with T4, 4H953-bH.
T4 chain: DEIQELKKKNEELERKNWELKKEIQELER
As to the kind of experiment: two-hybrid library CCNG1.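 Also: natural log of median RNA to DNA barcode read ratio; higher means stronger binding.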

For another test, the target named is T5, 4H855-bH.
T5 chain: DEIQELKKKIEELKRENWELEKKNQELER
As to the kind of experiment: two-hybrid library CCNG1.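 Also: natural log of median RNA to DNA barcode read ratio; higher means stronger binding.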

The target in another test is T6, 4H780-bH.
T6 chain: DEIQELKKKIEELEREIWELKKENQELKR
Briefly: two-hybrid library CCNG1.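 Also: natural log of median RNA to DNA barcode read ratio; higher means stronger binding.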

The target of a further test is T7, 4H918-bH.
T7 chain: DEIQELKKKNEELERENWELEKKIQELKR
As to the kind of experiment: two-hybrid library CCNG1.

Another test concerns the target T8, APC5531-AA.
T8 chain: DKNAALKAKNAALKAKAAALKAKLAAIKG
Briefly: two-hybrid library CCmax. The note with it: mean of both orientations.

In the next test the target is T9, APC7524-AA.
T9 chain: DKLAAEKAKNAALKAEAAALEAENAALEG
As to the kind of experiment: two-hybrid library CCmax. Conditions: mean of both orientations.

The target in the next test is T10, APC9141-AA.
T10 chain: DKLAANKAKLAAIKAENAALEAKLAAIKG
As to the kind of experiment: two-hybrid library CCmax. The note with it: mean of both orientations.

The target of the next test is T11, APC9806-AA.
T11 chain: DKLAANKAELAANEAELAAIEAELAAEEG
As to the kind of experiment: two-hybrid library CCmax. Conditions: mean of both orientations.

Another test addresses T12, APC8516-AA.
T12 chain: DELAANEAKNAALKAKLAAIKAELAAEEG
As to the kind of experiment: two-hybrid library CCmax. The note with it: mean of both orientations.

In another test the target is T13, APC6088-AA.
T13 chain: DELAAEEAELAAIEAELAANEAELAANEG
As to the kind of experiment: two-hybrid library CCmax. Conditions: mean of both orientations.

The next test has as its target T14, APC9291-AA.
T14 chain: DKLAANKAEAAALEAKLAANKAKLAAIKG
As to the kind of experiment: two-hybrid library CCmax. The note with it: mean of both orientations.

The target in the next test is T15, APC8401-AA.
T15 chain: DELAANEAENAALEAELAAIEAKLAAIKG
Briefly: two-hybrid library CCmax. The note with it: mean of both orientations.

In the next test the target is T16, APC9182-AA.
T16 chain: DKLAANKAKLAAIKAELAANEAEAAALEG
Briefly: two-hybrid library CCmax. The note with it: mean of both orientations.

Another test addresses T17, APC542-AA.
T17 chain: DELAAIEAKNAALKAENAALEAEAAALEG
As to the kind of experiment: two-hybrid library CCmax.

A further test concerns the target T18, APC6108-AA.
T18 chain: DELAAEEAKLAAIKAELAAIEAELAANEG
As to the kind of experiment: two-hybrid library CCmax.

A further test addresses T19, APC9096-AA.
T19 chain: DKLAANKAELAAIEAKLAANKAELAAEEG
Briefly: two-hybrid library CCmax. Conditions: mean of both orientations.

Another test deals with T20, APC8910-AA.
T20 chain: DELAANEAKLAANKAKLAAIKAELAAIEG
Briefly: two-hybrid library CCmax. The note with it: mean of both orientations.

The next test addresses T21, APC8191-AA.
T21 chain: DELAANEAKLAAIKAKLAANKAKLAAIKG
Briefly: two-hybrid library CCmax. The note with it: mean of both orientations.

For another test, the target named is T22, APC9319-AA.
T22 chain: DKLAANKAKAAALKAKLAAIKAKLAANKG
Briefly: two-hybrid library CCmax. The note with it: mean of both orientations.

The target of another test is T23, APC7099-AA.
T23 chain: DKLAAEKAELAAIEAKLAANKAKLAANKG
As to the kind of experiment: two-hybrid library CCmax. The note with it: mean of both orientations.

The next test addresses T24, 4H982-AA.
T24 chain: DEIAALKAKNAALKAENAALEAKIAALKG
As to the kind of experiment: two-hybrid library CCmax. Conditions: mean of both orientations.

In the next test the target is T25, 4H3588-AA.
T25 chain: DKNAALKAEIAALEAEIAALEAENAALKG
As to the kind of experiment: two-hybrid library CCmax. The note with it: mean of both orientations.

The target in another test is T26, 4H3718-AA.
T26 chain: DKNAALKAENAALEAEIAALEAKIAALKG
As to the kind of experiment: two-hybrid library CCmax. Conditions: mean of both orientations.

The target in another test is T27, 4H384-AA.
T27 chain: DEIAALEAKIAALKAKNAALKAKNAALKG
Briefly: two-hybrid library CCmax. The note with it: mean of both orientations.

In the next test the target is T28, 4H340-AA.
T28 chain: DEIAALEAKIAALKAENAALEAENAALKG
As to the kind of experiment: two-hybrid library CCmax. Conditions: mean of both orientations.

In another test the target is T29, 4H32-AA.
T29 chain: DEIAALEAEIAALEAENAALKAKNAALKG
As to the kind of experiment: two-hybrid library CCmax. Conditions: mean of both orientations.

A further test concerns the target T30, 4H3697-AA.
T30 chain: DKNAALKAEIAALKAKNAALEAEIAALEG
Briefly: two-hybrid library CCmax. Conditions: mean of both orientations.

For another test, the target named is T31, 4H3865-AA.
T31 chain: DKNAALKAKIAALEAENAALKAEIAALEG
Briefly: two-hybrid library CCmax. The note with it: mean of both orientations.

A further test addresses T32, 4H3606-AA.
T32 chain: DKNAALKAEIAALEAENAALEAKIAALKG
Briefly: two-hybrid library CCmax. The note with it: mean of both orientations.

In another test the target is T33, 4H3631-AA.
T33 chain: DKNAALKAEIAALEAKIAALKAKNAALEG
Briefly: two-hybrid library CCmax. The note with it: mean of both orientations.

Another test has as its target T34, 4H697-AA.
T34 chain: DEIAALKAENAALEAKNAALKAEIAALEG
Briefly: two-hybrid library CCmax. The note with it: mean of both orientations.

The target in another test is T35, 4H3378-AA.
T35 chain: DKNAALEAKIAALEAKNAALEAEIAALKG
Briefly: two-hybrid library CCmax. Conditions: mean of both orientations.

The target in the next test is T36, 4H3162-AA.
T36 chain: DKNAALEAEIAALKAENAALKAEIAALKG
Briefly: two-hybrid library CCmax.

For another test, the target named is T37, 4H3413-AA.
T37 chain: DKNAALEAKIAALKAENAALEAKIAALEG
Briefly: two-hybrid library CCmax. Conditions: mean of both orientations.

In turn, DEIAQLKQENAELKQKIAELEWKIAQLEQ [4H741-bA] returned an interaction score with 4H741-bA of 0.341.
As to DEIQELKKKIEELEREIWELKKENQELKR [4H780-bH], the interaction score with 4H797-bH is -0.654; in the test with 4H968-bH, -0.28; with 4H953-bH, -0.153; with 4H855-bH, 0.0924; with 4H780-bH it was 1.6; with 4H918-bH, 0.556.
DELAAIEAKNAALKAENAALEAEAAALEG [APC542-AA]: the interaction score was -1.88 with APC5531-AA; -2 in the test with APC7524-AA; -1.64 with APC9141-AA; -1.91 in the test with APC9806-AA; -1.5 with APC8516-AA; -2.13 with APC6088-AA. Moreover, the interaction score in the test with APC9291-AA is -1.54; with APC8401-AA it was -1.89; with APC9182-AA it was -1.84; in the test with APC542-AA, -1.57.
On to DELAAEEAKLAAIKAELAAIEAELAANEG [APC6108-AA], for which the interaction score in the test with APC6108-AA is -1.61; with APC9096-AA, -1.73; with APC8910-AA it was -2.2; with APC8191-AA, -1.6; with APC9319-AA, -1.1; with APC7099-AA, -1.52.
On to DKNAALEAEIAALKAENAALKAEIAALKG [4H3162-AA], for which the interaction score with 4H982-AA is -1.88; in the test with 4H3588-AA, -1.53; with 4H3718-AA it was -1.43; in the test with 4H384-AA, -1.58; in the test with 4H340-AA it was -1.4; with 4H32-AA, -1.53. The interaction score in the test with 4H3697-AA is -1.2; with 4H3865-AA, -0.607; with 4H3606-AA, -0.0579; with 4H3631-AA it was -1.62; with 4H697-AA, -1.39; in the test with 4H3378-AA, -1.59. Besides, the interaction score in the test with 4H3162-AA was 0.942; with 4H3413-AA it was -1.04.

For the origin of these results see article PMC10397247.
